# Laboratory results as given in patent US8936925B2, “Reconstitution of 5-enolpyruvylshikimate-3-phosphate synthase activity by fragment complementation” (priority 2004, dated 2015).
# Test system: aroA gene-mutant E. coli strain AB2829
# Test: In vivo complementation: growth on solid M63 restrictive medium
# Format: cell-based
# Set-up: key: −: failed to grow; +: able to grow
# Conditions: for complementation condition, C-terminal: C-terminal fragment alone; for complementation condition, N-terminal: N-terminal fragment alone
# Description: The pKU2100 plasmid constructed as described above and corresponding pACYC1184 plasmid were introduced separately or together into the strain AB2829 deficient in E. coli aroA gene. Then, the strain was streaked on solid M63 restrictive medium and cultured overnight to determine the growth.
# In order to test if EPSPS achieves fragment complementation after in vivo expression, genes encoding EPSPS N-terminal peptides were constructed into pACYC184, and genes encoding EPSPS C-terminal peptides were constructed into pBR322 (see the section Materials and Methods for the detailed construction method). Afterwards, these plasmids were introduced into aroA gene-mutant E. coli strain AB2829. EPSPS activity of the protein fragments encoded by these genes was determined by the growth of the strains on M63 restrictive medium.
# The pACYC184 and pBR322 plasmids are able to be expressed in the same bacterial cell since they have replicons p15A and ColE1 respectively. In this regard, a pACYC184 plasmid was co-introduced into aroA gene-mutant E. coli strain AB2829 together with a corresponding pKU2100 plasmid, wherein the N-terminal peptide encoded by the pACYC184 plasmid and C-terminal peptide encoded by the pKU2100 plasmid are the two fragments divided at the same site from EPSPS. The resulting strains are streaked on M63 restrictive medium, and cultured at 37° C.
# The pBR322 plasmids constructed in section 3.5 a and their relevant pACYC1184 plasmids constructed in section 3.5 b were introduced respectively or together into E. coli strain AB2829 deficient in aroA gene. Then the strains were streaked on solid M63 restrictive medium and cultured overnight to test the growth.
Molecule,"complementation condition, C-terminal","complementation condition, N-terminal"
"C372: E. coli EPSPS C-terminal fragment, residue 372 to C-terminus (EKLNFAEIATYNDHRMAMCFSLVALSDTPVTILDPKCTAKTFPDYFEQLARISQAA; UniProt P0A6D3 372-427, looked up, fragment)",−,
"C377: E. coli EPSPS C-terminal fragment, residue 377 to C-terminus (AEIATYNDHRMAMCFSLVALSDTPVTILDPKCTAKTFPDYFEQLARISQAA; UniProt P0A6D3 377-427, looked up, fragment)",−,
"C384: E. coli EPSPS C-terminal fragment, residue 384 to C-terminus (DHRMAMCFSLVALSDTPVTILDPKCTAKTFPDYFEQLARISQAA; UniProt P0A6D3 384-427, looked up, fragment)",−,
"N31: E. coli EPSPS N-terminal fragment, N-terminus to residue 31 (MESLTLQPIARVDGTINLPGSKSVSNRALLL; UniProt P0A6D3 1-31, looked up, fragment)",,−
"C185: E. coli EPSPS C-terminal fragment, residue 185 to C-terminus (protein, UniProt P0A6D3 185-427, looked up, fragment) EDTVIRIKGDLVSKPYIDITLNLMKTFGVEIENQHYQQFVVKGGQSYQSPGTYLVEGDASSASYFLAAAAIKGGTVKVTGIGRNSMQGDIRFADVLEKMGATICWGDDYISCTRGELNAIDMDMNHIPDAAMTIATAALFAKGTTTLRNIYNWRVKETDRLFAMATELRKVGAEVEEGHDYIRITPPEKLNFAEIATYNDHRMAMCFSLVALSDTPVTILDPKCTAKTFPDYFEQLARISQAA",−,
"C86: E. coli EPSPS C-terminal fragment, residue 86 to C-terminus (protein, UniProt P0A6D3 86-427, looked up, fragment) GALELFLGNAGTAMRPLAAALCLGSNDIVLTGEPRMKERPIGHLVDALRLGGAKITYLEQENYPPLRLQGGFTGGNVDVDGSVSSQFLTALLMTAPLAPEDTVIRIKGDLVSKPYIDITLNLMKTFGVEIENQHYQQFVVKGGQSYQSPGTYLVEGDASSASYFLAAAAIKGGTVKVTGIGRNSMQGDIRFADVLEKMGATICWGDDYISCTRGELNAIDMDMNHIPDAAMTIATAALFAKGTTTLRNIYNWRVKETDRLFAMATELRKVGAEVEEGHDYIRITPPEKLNFAEIATYNDHRMAMCFSLVALSDTPVTILDPKCTAKTFPDYFEQLARISQAA",−,
"N182: E. coli EPSPS N-terminal fragment, N-terminus to residue 182 (protein, UniProt P0A6D3 1-182, looked up, fragment) MESLTLQPIARVDGTINLPGSKSVSNRALLLAALAHGKTVLTNLLDSDDVRHMLNALTALGVSYTLSADRTRCEIIGNGGPLHAEGALELFLGNAGTAMRPLAAALCLGSNDIVLTGEPRMKERPIGHLVDALRLGGAKITYLEQENYPPLRLQGGFTGGNVDVDGSVSSQFLTALLMTAPL",,−
"N85: E. coli EPSPS N-terminal fragment, N-terminus to residue 85 (protein, UniProt P0A6D3 1-85, looked up, fragment) MESLTLQPIARVDGTINLPGSKSVSNRALLLAALAHGKTVLTNLLDSDDVRHMLNALTALGVSYTLSADRTRCEIIGNGGPLHAE",,−
"C183: E. coli EPSPS C-terminal fragment, residue 183 to C-terminus (protein, UniProt P0A6D3 183-427, looked up, fragment) APEDTVIRIKGDLVSKPYIDITLNLMKTFGVEIENQHYQQFVVKGGQSYQSPGTYLVEGDASSASYFLAAAAIKGGTVKVTGIGRNSMQGDIRFADVLEKMGATICWGDDYISCTRGELNAIDMDMNHIPDAAMTIATAALFAKGTTTLRNIYNWRVKETDRLFAMATELRKVGAEVEEGHDYIRITPPEKLNFAEIATYNDHRMAMCFSLVALSDTPVTILDPKCTAKTFPDYFEQLARISQAA",−,
"N104: E. coli EPSPS N-terminal fragment, N-terminus to residue 104 (protein, UniProt P0A6D3 1-104, looked up, fragment) MESLTLQPIARVDGTINLPGSKSVSNRALLLAALAHGKTVLTNLLDSDDVRHMLNALTALGVSYTLSADRTRCEIIGNGGPLHAEGALELFLGNAGTAMRPLAA",,−
"C105: E. coli EPSPS C-terminal fragment, residue 105 to C-terminus (protein, UniProt P0A6D3 105-427, looked up, fragment) ALCLGSNDIVLTGEPRMKERPIGHLVDALRLGGAKITYLEQENYPPLRLQGGFTGGNVDVDGSVSSQFLTALLMTAPLAPEDTVIRIKGDLVSKPYIDITLNLMKTFGVEIENQHYQQFVVKGGQSYQSPGTYLVEGDASSASYFLAAAAIKGGTVKVTGIGRNSMQGDIRFADVLEKMGATICWGDDYISCTRGELNAIDMDMNHIPDAAMTIATAALFAKGTTTLRNIYNWRVKETDRLFAMATELRKVGAEVEEGHDYIRITPPEKLNFAEIATYNDHRMAMCFSLVALSDTPVTILDPKCTAKTFPDYFEQLARISQAA",−,
"C219: E. coli EPSPS C-terminal fragment, residue 219 to C-terminus (protein, UniProt P0A6D3 219-427, looked up, fragment) HYQQFVVKGGQSYQSPGTYLVEGDASSASYFLAAAAIKGGTVKVTGIGRNSMQGDIRFADVLEKMGATICWGDDYISCTRGELNAIDMDMNHIPDAAMTIATAALFAKGTTTLRNIYNWRVKETDRLFAMATELRKVGAEVEEGHDYIRITPPEKLNFAEIATYNDHRMAMCFSLVALSDTPVTILDPKCTAKTFPDYFEQLARISQAA",−,
"N184: E. coli EPSPS N-terminal fragment, N-terminus to residue 184 (protein, UniProt P0A6D3 1-184, looked up, fragment) MESLTLQPIARVDGTINLPGSKSVSNRALLLAALAHGKTVLTNLLDSDDVRHMLNALTALGVSYTLSADRTRCEIIGNGGPLHAEGALELFLGNAGTAMRPLAAALCLGSNDIVLTGEPRMKERPIGHLVDALRLGGAKITYLEQENYPPLRLQGGFTGGNVDVDGSVSSQFLTALLMTAPLAP",,−
"N218: E. coli EPSPS N-terminal fragment, N-terminus to residue 218 (protein, UniProt P0A6D3 1-218, looked up, fragment) MESLTLQPIARVDGTINLPGSKSVSNRALLLAALAHGKTVLTNLLDSDDVRHMLNALTALGVSYTLSADRTRCEIIGNGGPLHAEGALELFLGNAGTAMRPLAAALCLGSNDIVLTGEPRMKERPIGHLVDALRLGGAKITYLEQENYPPLRLQGGFTGGNVDVDGSVSSQFLTALLMTAPLAPEDTVIRIKGDLVSKPYIDITLNLMKTFGVEIENQ",,−
"N154: E. coli EPSPS N-terminal fragment, N-terminus to residue 154 (protein, UniProt P0A6D3 1-154, looked up, fragment) MESLTLQPIARVDGTINLPGSKSVSNRALLLAALAHGKTVLTNLLDSDDVRHMLNALTALGVSYTLSADRTRCEIIGNGGPLHAEGALELFLGNAGTAMRPLAAALCLGSNDIVLTGEPRMKERPIGHLVDALRLGGAKITYLEQENYPPLRLQ",,−
"N165: E. coli EPSPS N-terminal fragment, N-terminus to residue 165 (protein, UniProt P0A6D3 1-165, looked up, fragment) MESLTLQPIARVDGTINLPGSKSVSNRALLLAALAHGKTVLTNLLDSDDVRHMLNALTALGVSYTLSADRTRCEIIGNGGPLHAEGALELFLGNAGTAMRPLAAALCLGSNDIVLTGEPRMKERPIGHLVDALRLGGAKITYLEQENYPPLRLQGGFTGGNVDVD",,−
"C166: E. coli EPSPS C-terminal fragment, residue 166 to C-terminus (protein, UniProt P0A6D3 166-427, looked up, fragment) GSVSSQFLTALLMTAPLAPEDTVIRIKGDLVSKPYIDITLNLMKTFGVEIENQHYQQFVVKGGQSYQSPGTYLVEGDASSASYFLAAAAIKGGTVKVTGIGRNSMQGDIRFADVLEKMGATICWGDDYISCTRGELNAIDMDMNHIPDAAMTIATAALFAKGTTTLRNIYNWRVKETDRLFAMATELRKVGAEVEEGHDYIRITPPEKLNFAEIATYNDHRMAMCFSLVALSDTPVTILDPKCTAKTFPDYFEQLARISQAA",−,
"C155: E. coli EPSPS C-terminal fragment, residue 155 to C-terminus (protein, UniProt P0A6D3 155-427, looked up, fragment) GGFTGGNVDVDGSVSSQFLTALLMTAPLAPEDTVIRIKGDLVSKPYIDITLNLMKTFGVEIENQHYQQFVVKGGQSYQSPGTYLVEGDASSASYFLAAAAIKGGTVKVTGIGRNSMQGDIRFADVLEKMGATICWGDDYISCTRGELNAIDMDMNHIPDAAMTIATAALFAKGTTTLRNIYNWRVKETDRLFAMATELRKVGAEVEEGHDYIRITPPEKLNFAEIATYNDHRMAMCFSLVALSDTPVTILDPKCTAKTFPDYFEQLARISQAA",−,
